Test results published in paper PMC3466315, “Influence of PAS Domain Flanking Regions on Oligomerisation and Redox Signalling By NifL” (PLoS ONE, 2012).

Columns and labels:
[1] = biological target: the molecule itself; assay: SEC; Superose 12 10/300 GL, 0.5 ml/min, 50 mM Tris-HCl, 10% v/v glycerol, 200 mM NaCl, pH 8.0; protein at 106 µM (in monomeric terms); 1-140 constructs; self-association
[2] = biological target: the molecule itself; assay: SEC; Superose 12 10/300 GL, 0.5 ml/min, 50 mM Tris-HCl, 10% v/v glycerol, 200 mM NaCl, pH 8.0; 1-162 constructs at the highest injected concentration, 424 µM; self-association
[3] = biological target: the molecule itself; assay: SEC; Superose 12 10/300 GL, 0.5 ml/min, 50 mM Tris-HCl, 10% v/v glycerol, 200 mM NaCl, pH 8.0; 1-162 constructs at five different protein concentrations; self-association, dimer-tetramer equilibrium
[4] = biological target: the molecule itself; assay: SEC; Superose 12 10/300 GL, 0.5 ml/min, 50 mM Tris-HCl, 10% v/v glycerol, 200 mM NaCl, pH 8.0; 1-162 constructs of Table S1, protein concentration not given; self-association

B1: NifL PAS1 domain construct, residues 21-140 (domain or fragment, Azotobacter vinelandii, UniProt P30663 21-140, looked up)
chain: ELLPEIFRQTVEHAPIAISITDLKANILYANRAFRTITGYGSEEVLGKNESILSNGTTPRLVYQALWGRLAQKKPWSGVLVNRRKDKTLYLAELTVAPVLNEAGETIYYLGMHRDTSELH
notes: NifL, Azotobacter vinelandii, residues 21-140; also called construct lacking the entire N-terminal extension; source: E. coli BL21(DE3)pLysS, purified; not shown: hexa-histidine-containing tag (26 additional residues, from the vector pETNdeM-11), N-terminal, kept
**Q.** How did the “stoichiometry N” value [1] turn out when B1 was run?
**A.** 2

B2: NifL PAS1 construct with the N-terminal region and the C-terminal linker helix, residues 1-162 (domain or fragment, Azotobacter vinelandii, UniProt P30663 1-162, looked up)
chain: MTPANPTLSNEPQAPHAESDELLPEIFRQTVEHAPIAISITDLKANILYANRAFRTITGYGSEEVLGKNESILSNGTTPRLVYQALWGRLAQKKPWSGVLVNRRKDKTLYLAELTVAPVLNEAGETIYYLGMHRDTSELHELEQRVNNQRLMIEAVVNAAPA
notes: NifL, Azotobacter vinelandii, residues 1-162 (PAS1 with both flanking regions); PAS1 carries an FAD cofactor; also called NifL(1-162); 1-162 construct; source: E. coli BL21(DE3)pLysS, purified
**Q.** For B2, which “stoichiometry N” value [2] is on record?
**A.** 2.8 monomers

**Q.** What about the “stoichiometry N” value [3] of the same protein?
**A.** ~2

**Q.** What about the “stoichiometry N” value [4] of the same protein?
**A.** 2.5 monomers

B3: NifL PAS1 domain construct, residues 1-140 (domain or fragment, Azotobacter vinelandii, UniProt P30663 1-140, looked up)
chain: MTPANPTLSNEPQAPHAESDELLPEIFRQTVEHAPIAISITDLKANILYANRAFRTITGYGSEEVLGKNESILSNGTTPRLVYQALWGRLAQKKPWSGVLVNRRKDKTLYLAELTVAPVLNEAGETIYYLGMHRDTSELH
notes: NifL, Azotobacter vinelandii, residues 1-140 (PAS1 domain with the N-terminal flanking region, without the C-terminal linker helix); PAS1 carries an FAD cofactor; also called NifL(1-140); 1-140 PAS1 domain construct; source: E. coli BL21(DE3)pLysS, purified; not shown: hexa-histidine-containing tag (26 additional residues, from the vector pETNdeM-11), N-terminal, kept
**Q.** How did the “stoichiometry N” value [1] turn out when B3 was run?
**A.** ~4

B4: NifL(1-162) ΔR150-L151 (domain or fragment, Azotobacter vinelandii, UniProt P30663 1-162, looked up)
chain: MTPANPTLSNEPQAPHAESDELLPEIFRQTVEHAPIAISITDLKANILYANRAFRTITGYGSEEVLGKNESILSNGTTPRLVYQALWGRLAQKKPWSGVLVNRRKDKTLYLAELTVAPVLNEAGETIYYLGMHRDTSELHELEQRVNNQMIEAVVNAAPA
notes: NifL, Azotobacter vinelandii, residues 1-162 with R150-L151 of the linker helix deleted; source: E. coli BL21(DE3)pLysS, purified
**Q.** Does B4 bind [3]?
**A.** binds

B5: NifL 1-162 PAS1 construct after removal of the first 20 residues (domain or fragment, Azotobacter vinelandii, UniProt P30663 21-162, looked up)
chain: ELLPEIFRQTVEHAPIAISITDLKANILYANRAFRTITGYGSEEVLGKNESILSNGTTPRLVYQALWGRLAQKKPWSGVLVNRRKDKTLYLAELTVAPVLNEAGETIYYLGMHRDTSELHELEQRVNNQRLMIEAVVNAAPA
notes: NifL, Azotobacter vinelandii; the 1-162 construct without its first 20 residues; The limits are worked out from 'removal of the first 20 residues' of the 1-162 construct; source: E. coli BL21(DE3)pLysS, purified
**Q.** With B5 as the protein, how does the “stoichiometry N” value [4] read?
**A.** 2

B6: NifL(1-162) ΔL151 (domain or fragment, Azotobacter vinelandii, UniProt P30663 1-162, looked up)
chain: MTPANPTLSNEPQAPHAESDELLPEIFRQTVEHAPIAISITDLKANILYANRAFRTITGYGSEEVLGKNESILSNGTTPRLVYQALWGRLAQKKPWSGVLVNRRKDKTLYLAELTVAPVLNEAGETIYYLGMHRDTSELHELEQRVNNQRMIEAVVNAAPA
notes: NifL, Azotobacter vinelandii, residues 1-162 with L151 of the linker helix deleted; source: E. coli BL21(DE3)pLysS, purified
**Q.** Does B6 bind [3]?
**A.** binds

B7: NifL(1-162) ΔN147-L151 (domain or fragment, Azotobacter vinelandii, UniProt P30663 1-162, looked up)
chain: MTPANPTLSNEPQAPHAESDELLPEIFRQTVEHAPIAISITDLKANILYANRAFRTITGYGSEEVLGKNESILSNGTTPRLVYQALWGRLAQKKPWSGVLVNRRKDKTLYLAELTVAPVLNEAGETIYYLGMHRDTSELHELEQRVMIEAVVNAAPA
notes: NifL, Azotobacter vinelandii, residues 1-162 with N147-L151 of the linker helix deleted; also called construct lacking residues N147-L151; source: E. coli BL21(DE3)pLysS, purified
**Q.** How did the “stoichiometry N” value [2] turn out when B7 was run?
**A.** 3.6 monomers
